Test results as given in PMC4301630, “Dynamic Growth and Shrinkage Govern the pH Dependence of RecA Filament Stability” (PLoS ONE, 2015).

Molecular target: the molecule itself
Assay: single-molecule FRET (Cy3 and Cy5 on the DNA, TIRF microscopy); partial duplex DNA with a 60 nt 3' single-stranded overhang immobilised on a PEG-coated quartz slide; dyes 10 nt apart at the 5' side of the overhang report monomers joining and leaving the 5' end of the RecA filament; 1 uM RecA (0.5 uM RecAΔC17), 1 mM ATP, 10 mM Mg(OAc)2, 100 mM NaOAc, 10 mM Tris-OAc, Mes or Mops, pH 6.0 to 8.0, room temperature; …

B1: RecA protein (wild type) (natural protein, UniProt P0A7G6 1-353, looked up)
chain: MAIDENKQKALAAALGQIEKQFGKGSIMRLGEDRSMDVETISTGSLSLDIALGAGGLPMGRIVEIYGPESSGKTTLTLQVIAAAQREGKTCAFIDAEHALDPIYARKLGVDIDNLLCSQPDTGEQALEICDALARSGAVDVIVVDSVAALTPKAEIEGEIGDSHMGLAARMMSQAMRKLAGNLKQSNTLLIFINQIRMKIGVMFGNPETTTGGNALKFYASVRLDIRRIGAVKEGENVVGSETRVKVVKNKIAAPFKQAEFQILYGEGINFYGELVDLGVKEKLIEKAGAWYSYKGEKIGQGKANATAWLKDNPETAKEIEKKVRELLLSNPNSTPDFSVDDSEGVAETNEDF
notes: RecA protein, wild type, bought from New England Biolabs; Forms helical filaments of many monomers on single-stranded DNA with ATP or ATPγS; the number of copies in the filament is not fixed; also called wild type RecA; source: bought: New England Biolabs, used without further purification
B1: binds.
